In article PMC6747709, “Homology Modeling-Based in Silico Affinity Maturation Improves the Affinity of a Nanobody” (International Journal of Molecular Sciences, 2019):
Positions count from the first letter of the chain named. Names and notes keep the numbering of the source. Values belong to the binder of their own block, whether it stands above or below them.

How the values were obtained:
Conditions in all cases: both partners purified
[1] = target: T1, CD47 extracellular domain (biotin (enzymatically biotinylated; stated for the SPR experiment)); assay: ELISA; indirect ELISA; CD47^ext coated at 30 ug/mL overnight at 4 °C; serially diluted VHH, 2.5 h at 37 °C; detected with HRP-conjugated anti-His tag mAb, OD450
T1 construct: CD47 extracellular domain; bought protein Abcam ab174029; source: bought: Abcam (ab174029), enzymatically biotinylated

[2] = target: T1, CD47 extracellular domain; assay: ELISA; indirect ELISA after heat treatment of the VHH (10 min at six temperatures, 4 to 70 °C); CD47^ext coated at 30 ug/mL; VHH at 30 ug/mL, 2 h at 37 °C; detected with HRP-conjugated anti-His tag mAb, OD450
[3] = target: T1, CD47 extracellular domain; assay: SPR; Biacore 3000, 25 °C; ~350 RU enzymatically biotinylated CD47^ext immobilised on a CM5 chip, VHHs flowed over at 40 uL/min in 10 mM HEPES, 150 mM NaCl, 3 mM EDTA, 0.05% P20, pH 7.4; 1:1 Langmuir model; duplicates

T1 sequence (chain, as listed by the source): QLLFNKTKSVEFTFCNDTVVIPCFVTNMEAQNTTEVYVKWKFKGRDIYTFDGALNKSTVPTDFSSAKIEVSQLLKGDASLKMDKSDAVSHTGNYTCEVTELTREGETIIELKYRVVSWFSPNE

B3: Nb02 mutant M6 (VHH)
VHH: EVQLQASGGGLVQAGGSLRLSCAASGFTNERSQNMGWFRQAPGKEREGVACIQSRVVECWYADSVKGRFTISRDNAKNTVYLQMNSLKPEDTAVYYCAAPRAITWHVFVGEHMCDYWGQGTQVTVSS
notes: One of five triple and two quadruple mutants combined from the round 1 mutations; source: E. coli TransB (DE3), purified (Ni2+ IMAC, HisTrap HP)
Kd [3]: 58.2 ± 4.5 nM

B5: Nb02 mutant M3 (VHH)
VHH: B3 VHH with W105G
notes: as for B3
Kd [3]: 69.5 ± 6.1 nM

B6: Nb02 mutant M4 (VHH)
VHH: B3 VHH with W105G, V107S, F108A
notes: the text says only that M4 includes F110A; One of five triple and two quadruple mutants combined from the round 1 mutations; source: E. coli TransB (DE3), purified (Ni2+ IMAC, HisTrap HP)
Kd [3]: 57 ± 7.3 nM

B7: Nb02 mutant M1 (VHH)
VHH: B3 VHH with V107S
notes: One of five triple and two quadruple mutants combined from the round 1 mutations (S55Q, G107I, G107W, T108H, S109E, S109V, F110A); source: E. coli TransB (DE3), purified (Ni2+ IMAC, HisTrap HP)
Kd [3]: 74.5 ± 5.5 nM

Binders with a lower Kd [3], results first:

ELISA signal relative to M0 at 5.625 ug/mL [1]: 158%
ELISA signal relative to M0 at 360 ug/mL [1]: ~120%
OD450 at 70 °C relative to 4 °C [2]: ~45%
Kd [3]: 3.2 ± 1 nM
B1: Nb02 quadruple mutant M7 (G107W, T108H, S109V, F110A) (VHH)
VHH: B3 VHH with Q53S, F108A
notes: also called best mutant; lead variant; source: E. coli TransB (DE3), purified (Ni2+ IMAC, HisTrap HP); not shown: His6, C-terminal, kept

Kd [3]: 11.4 ± 2.1 nM
B2: Nb02 mutant M2 (VHH)
VHH: B3 VHH with H106T
notes: as for B3

Kd [3]: 25.3 ± 3.7 nM
B4: Nb02 mutant M5 (VHH)
VHH: B3 VHH with Q53S
notes: as for B3
